Positions count from the first letter of the chain named. Numbers in names are those of the source.
How the values were obtained:
[1] = biological target: T1, human CIB2 1-187 F21Q (human, UniProt O75838 1-187, F21Q); assay: ITC + SEC
T1 sequence: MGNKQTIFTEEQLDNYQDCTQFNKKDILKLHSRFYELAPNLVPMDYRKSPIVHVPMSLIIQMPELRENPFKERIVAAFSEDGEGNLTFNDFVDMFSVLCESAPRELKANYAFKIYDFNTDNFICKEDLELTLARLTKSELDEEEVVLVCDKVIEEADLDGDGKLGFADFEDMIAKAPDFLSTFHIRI

[2] = biological target: T2, human CIB2 1-187 E11R (human, UniProt O75838 1-187, E11R); assay: ITC + SEC
T2 sequence: T1 sequence with E11R, Q21F

[3] = biological target: T3, human CIB2 1-187 (calcium- and integrin-binding protein 2), wild type (human, UniProt O75838 1-187); assay: SEC-MALS
T3 sequence: T1 sequence with Q21F

[4] = biological target: T4, human CIB2 I123T (deafness-related variant) (human, UniProt O75838 1-187, I123T); assay: ITC
T4 sequence: T1 sequence with Q21F, I123T

[5] = biological target: T5, mouse CIB3 (mouse, UniProt A0A5F8MPX9 1-187); assay: ITC
T5 sequence: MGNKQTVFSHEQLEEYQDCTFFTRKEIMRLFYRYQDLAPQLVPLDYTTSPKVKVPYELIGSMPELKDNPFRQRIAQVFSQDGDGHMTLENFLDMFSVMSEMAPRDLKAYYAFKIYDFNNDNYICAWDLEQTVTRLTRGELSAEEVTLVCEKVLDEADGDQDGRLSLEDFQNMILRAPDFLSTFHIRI

[6] = biological target: T6, human CIB2 1-187 Q17A/T20A (human, UniProt O75838 1-187, Q17A | T20A); assay: ITC
T6 sequence: T1 sequence with Q17A, T20A, Q21F

[7] = biological target: T7, human CIB2 E64D (deafness-related variant) (human, UniProt O75838 1-187, E64D); assay: ITC
T7 sequence: T1 sequence with Q21F, E64D

[8] = biological target: T8, human CIB2 R66W (deafness-related variant) (human, UniProt O75838 1-187, R66W); assay: ITC
T8 sequence: T1 sequence with Q21F, R66W

[9] = biological target: T9, human CIB2 Y115C (deafness-related variant) (human, UniProt O75838 1-187, Y115C); assay: ITC
T9 sequence: T1 sequence with Q21F, Y115C

[10] = biological target: T10, human CIB2 R186W (deafness-related variant) (human, UniProt O75838 1-187, R186W); assay: ITC
T10 sequence: T1 sequence with Q21F, R186W

[11] = biological target: T11, human CIB2 1-187 D127A/D168A (EF-hand double mutant) (human, UniProt O75838 1-187, D127A | D168A); assay: ITC
T11 sequence: T1 sequence with Q21F, D127A, D168A

[12] = biological target: T3, human CIB2 1-187 (calcium- and …); assay: ITC
[13] = biological target: T3, human CIB2 1-187 (calcium- and …); assay: ITC + SEC
[14] = biological target: T4, human CIB2 I123T (deafness-related …); assay: pull-down
[15] = biological target: T7, human CIB2 E64D (deafness-related …); assay: pull-down
[16] = biological target: T8, human CIB2 R66W (deafness-related …); assay: pull-down
[17] = biological target: T9, human CIB2 Y115C (deafness-related …); assay: pull-down
[18] = biological target: T10, human CIB2 R186W (deafness-related …); assay: pull-down
[19] = biological target: T12, human CIB2 F91S (deafness-related variant) (human, UniProt O75838 1-187, F91S); assay: pull-down
T12 sequence: T1 sequence with Q21F, F91S

[20] = biological target: T12, human CIB2 F91S (deafness-related …); assay: ITC

B1: human TMC1 CBD-1 (CIB binding domain-1), residues 86-136 (domain or fragment)
chain: EEELERLKAELDEKRQIIATVKCKPWKMEKKIEVLKEAKKFVSENEGALGK
binding result [1]: binds
binding result [2]: binds
stoichiometry N [3]: 1
binding result [4]: binds
binding result [5]: binds
fold decrease in binding affinity against wild-type CIB2 [6]: > 15 fold
binding result [7]: binds
binding result [8]: binds
binding result [9]: binds
binding result [10]: binds
binding result [11]: binds
Kd [12]: ~300 nM

B2: human TMC1 CBD-1 (86-136) K107A (domain or fragment)
chain: B1 chain with K22A
binding result [13]: binds

B3: human TMC1 CBD-1 (86-136) K121E (domain or fragment)
chain: B1 chain with K36E
binding result [13]: binds

B4: human TMC1 fragment 95-136 (domain or fragment)
chain: ELDEKRQIIATVKCKPWKMEKKIEVLKEAKKFVSENEGALGK
Kd [12]: ~4600 nM

B5: human TMC2 CBD-1 (aa 150-200) (domain or fragment)
chain: EEELAQILEQVEEKKKLIATMRSKPWPMAKKLTELREAQEFVEKYEGALGK
Kd [12]: ~600 nM

B6: human TMC2 CBD-2 (aa 363-424) (domain or fragment)
chain: NTQGSTGEGESDNFTFSFKMFTSWDYLIGNSETADNKYASITTSFKESIVDEQESNKEENIH
binding result [12]: binds

B7: GST-tagged human TMC1 CBD-1 (86-136) (domain or fragment)
chain: B1 chain
binding result [14]: binds
binding result [15]: binds
binding result [16]: binds
binding result [17]: binds
binding result [18]: binds

B8: GST-tagged human TMC1 CBD-2 (298-359) (domain or fragment)
chain: KNIGDDGGGDDNTFNFSWKVFTSWDYLIGNPETADNKFNSITMNFKEAITEEKAAQVEENVH
binding result [16]: binds
binding result [18]: binds
binding result [19]: binds

B9: human TMC1 CBD-2, amino acids 298-359 (first cytoplasmic loop between TM domains 2 and 3) (domain or fragment)
chain: B8 chain
binding result [8]: binds
binding result [10]: binds
binding result [20]: binds

Source: publication PMC11861898 (Communications Biology, 2025)
